Experimental findings from patent US20190338048A1 are described below.

Read-outs that look alike come from different tables or passages of the source.

The target in test [1] is CAT-2200 Fab heavy chain Q179K. In words: LCCA.
For test [2], the target named is Pertuzumab kappa light chain S121K_S131R_V133G_S176R. In words: LCCA, SPR tag read-out.
The target is the same in test [3]. In words: LCCA, SPR tag read-out. This is another data set of the same source.
The target of test [4] is CAT-2200 lambda light chain S122D_V133D_Y178T. In words: LCCA, SPR tag read-out.
The target in test [5] is CAT-2200 lambda light chain S122D_K129T_V133D_Y178T. In words: LCCA, SPR tag read-out.
For test [6], the target named is CAT-2200 lambda light chain S122D_K129T_V133D. In words: LCCA, SPR tag read-out.
The target of test [7] is Pertuzumab kappa light chain S121K_S131R_V133G_S176R. In words: LCCA, SPR tag read-out. The source holds these as a separate data set.
Test [8] deals with Pertuzumab kappa light chain Q124R_Q160R_T178R. In words: LCCA, SPR tag read-out.
Test [9] addresses Pertuzumab kappa light chain Q124R_T178R. In words: LCCA, SPR tag read-out.
The target is the same in test [10]. In words: LCCA, SPR tag read-out. This is another data set of the same source.
In test [11] the target is Pertuzumab kappa light chain Q124R_L135W_Q160K_T178R. In words: LCCA.
Test [12] has as its target Pertuzumab kappa light chain Q124R_T178R. In words: LCCA, SPR tag read-out. This is another data set of the same source.
For test [13], the target named is Pertuzumab kappa light chain Q124R_L135W_Q160K_T178R. In words: LCCA, SPR tag read-out.
For test [14], the target named is Pertuzumab kappa light chain Q124R_L135W_T178R. In words: LCCA, SPR tag read-out.
Test [15] has as its target Pertuzumab kappa light chain Q124R_Q160R_T178R. In words: LCCA, SPR tag read-out. This is another data set of the same source.
Test [16] concerns the target Pertuzumab kappa light chain Q124R_T178R. In words: LCCA, SPR tag read-out. This is another data set of the same source.
Test [17] addresses Pertuzumab kappa light chain Q124R_L135W_T178R. In words: LCCA, SPR tag read-out. This is another data set of the same source.
For test [18], the target named is Pertuzumab kappa light chain Q124R_T178R. In words: LCCA, SPR tag read-out. This is another data set of the same source.
In test [19] the target is Pertuzumab kappa light chain Q124R_L135W_T178R. In words: LCCA, SPR tag read-out. The source holds these as a separate data set.
Test [20] addresses Pertuzumab kappa light chain S131K_L135K. In words: LCCA, SPR tag read-out.
Test [21] concerns the target CAT-2200 lambda light chain K129T_V133D_L135S. In words: LCCA, SPR tag read-out.
Test [22] addresses Pertuzumab kappa light chain S121K_S131K_L135K. In words: LCCA, SPR tag read-out.
Test [23] concerns the target Pertuzumab kappa light chain S131K_V133G_S176R. In words: LCCA, SPR tag read-out.
The target in test [24] is CAT-2200 lambda light chain K129T_T131D_V133D. In words: LCCA, SPR tag read-out.
The target of test [25] is Pertuzumab kappa light chain S131R_V133G_S176R. In words: LCCA, SPR tag read-out.
For test [26], the target named is CAT-2200 lambda light chain K129T_V133D_Y178T. In words: LCCA, SPR tag read-out.
Test [27] addresses CAT-2200 lambda light chain V133D_Y178T. In words: LCCA, SPR tag read-out.
Test [28] addresses Pertuzumab kappa light chain S131R_V133G_L135W_S176R. In words: LCCA, SPR tag read-out.
Test [29] has as its target Pertuzumab kappa light chain S131K_V133G_S176R. In words: LCCA, SPR tag read-out. The source holds these as a separate data set.
Test [30] addresses Pertuzumab kappa light chain S131R_V133G_S176R. In words: LCCA, SPR.
The target in test [31] is Pertuzumab kappa light chain S131K_V133G_S176R. In words: LCCA, SPR.
In test [32] the target is Pertuzumab kappa light chain S131R_V133G_L135W_S176R. In words: LCCA, SPR tag read-out. The source holds these as a separate data set.
Test [33] addresses CAT-2200 lambda light chain K129T_V133D. In words: LCCA, SPR.
The target in test [34] is Pertuzumab kappa light chain S131R_V133G_S176R. In words: LCCA, SPR. This is another data set of the same source.
In test [35] the target is CAT-2200 lambda light chain K129T_V133D. In words: LCCA, SPR. This is another data set of the same source.
Test [36] has as its target Pertuzumab kappa light chain S131K_V133G_S176R. In words: LCCA, SPR. The source holds these as a separate data set.
The target of test [37] is Pertuzumab kappa light chain S131R_V133G_L135W_S176R. In words: LCCA, SPR tag read-out. The source holds these as a separate data set.
The target of test [38] is CAT-2200 Fab heavy chain L143D_K145T. In words: LCCA.
In test [39] the target is Pertuzumab kappa light chain V133I_S176E_T178E (L2), N-terminal HA tag. In words: LCCA, SPR of light chain tags.
Test [40] concerns the target CAT-2200 lambda light chain S176K_Y178K (L1), N-terminal FLAG tag. In words: LCCA, SPR of light chain tags.
In test [41] the target is Pertuzumab kappa light chain V133L_S176D_T178E (L2), N-terminal HA tag. In words: LCCA, SPR of light chain tags.
The target of test [42] is CAT-2200 lambda light chain S176K_Y178K (L1), N-terminal FLAG tag. In words: LCCA, SPR of light chain tags. The source holds these as a separate data set.
Test [43] addresses Pertuzumab kappa light chain V133I_S176D_T178E (L2), N-terminal HA tag. In words: LCCA, SPR of light chain tags.
For test [44], the target named is Pertuzumab kappa light chain V133I_S176E_T178E (L2), N-terminal HA tag. In words: LCCA, SPR of light chain tags. The source holds these as a separate data set.
For test [45], the target named is Pertuzumab kappa light chain V133L_S176D_T178E (L2), N-terminal HA tag. In words: LCCA, SPR of light chain tags. The source holds these as a separate data set.
Test [46] has as its target CAT-2200 Fab heavy chain L143A_Q179K. In words: LCCA.
For test [47] the target is unchanged. In words: LCCA. This is another data set of the same source.
Test [48] concerns the target CAT-2200 Fab heavy chain S186K. In words: LCCA.

Turning to “CAT-2200 lambda light chain K129T_Y178E_S180E”, the H1L1:H1L2 median scalar value (ln(H1L1:H1L2)) in test [1] was 0.89.

For the substance “Pertuzumab Fab heavy chain L124E_K145T_Q179E_K228D”, the H2L2:H2L1 median scalar value was 3.08 ln(ratio) in test [2], 1.9 ln(ratio) in test [3] and 2.42 ln(ratio) in test [7]. Also, the H2L2:H2L1 normalized median ratio is 95% in [2]; 86% in test [3]; 14% in test [4]; 8% in [5]; 5% in [6]; 92% in test [7].

As for “Pertuzumab Fab heavy chain L143E_K145T_Q179E”, the H2L2:H2L1 median scalar value was 2.58 ln(ratio) in [8]; 3.1 ln(ratio) in test [9]; 3.63 ln(ratio) in test [10]; 0.77 ln in test [11]; 3.52 ln(ratio) in test [12]; 2.02 ln(ratio) in test [13]. For the same substance, the H2L2:H2L1 median scalar value in test [14] was 2.64 ln(ratio); in test [15] it was 2.79 ln(ratio); in test [16], 2.74 ln(ratio); in test [17] it was 2.68 ln(ratio); in test [18] it was 3.01 ln(ratio); in test [19], 2.54 ln(ratio).

Consider “Pertuzumab Fab heavy chain L124E_A139I_K145T_V190I”, for which, in test [20], the H2L2:H2L1 median scalar value is 0.48 ln(ratio) and the H2L2:H2L1 normalized median ratio came to 61%. Besides, the H2L2:H2L1 normalized median ratio in test [21] turned out to be 39%.

With “Pertuzumab Fab heavy chain L124E_A139I_K145T_V190I_K228D”, the H2L2:H2L1 median scalar value in test [22] is 0.25 ln(ratio).

For the substance “Pertuzumab Fab heavy chain L124E_K145T_Q179E”, the H2L2:H2L1 median scalar value was 3.71 ln(ratio) in [23]; 4.11 ln(ratio) in [25]; 1.71 ln(ratio) in test [28]; 3.26 ln(ratio) in test [29]; 2.31 ln(ratio) in test [32]; 1.7 ln(ratio) in test [37]. Further, the H2L2:H2L1 normalized median ratio in [24] amounted to 4%; in test [26] it was 16%; in test [27] it was 16%; in [33] it was 4%; in [35], 8%. The H2L2:H2L1 normalized median scalar value ln(r1/f1) is 2.72 in test [30], 2.18 in test [31], 3.12 in test [34] and 2.38 in [36].

Substance “CAT-2200 lambda light chain E124Q_T131K_V133S” returned an H1L1:H1L2 median scalar value (ln(H1L1:H1L2)) in test [38] of 0.54.

In the case of “Pertuzumab Fab heavy chain V177I_S188K (H2), ABD2-His6 tagged”, the H2L2:H2L1 normalized median scalar value ln(r1/f1) amounted to 2.79 in test [39]; 0.55 in [41]; 2.34 in test [43]; 2.83 in test [44]; 2.37 in test [45]. Further, the H2L2:H2L1 normalized median ratio in test [40] was determined as 9%; in test [42], 9%; in test [43] it was 91%; in [45] it was 91%.

As to “CAT-2200 lambda light chain K129T_V133W_S180E”, the H1L1:H1L2 median scalar value (ln(H1L1:H1L2)) in test [46] was 1.51; in [47], 0.88.

“CAT-2200 lambda light chain K129T_V133D_Y178T”: the H1L1:H1L2 median scalar value (ln(H1L1:H1L2)) in test [48] is 0.06.
